According to patent US20130123350, “NUCLEIC ACID MOLECULE CAPABLE OF BINDING TO c-MET AND USE THEREOF” (KANAGAWA PREFECTURAL HOSPITAL ORGANIZATION, published 2013):

B1: g35 2'-F (ssRNA)
RNA: GGGACGCUCACGUACGCUAAGAUUUGUGUGAUACCCGACACUCUAACGGGGUAGCAGGGCUCAGUGCCUGGACGUGCAGU
modifications: 2'-F on all C and U
B2: g37 2'-F (ssRNA)
RNA: GGGACGCUCACGUACGCUAAGGUUUGCUCCGACCGACUAAAGGGAGCCUCUGUCACGAGUUCAGUGCCUGGACGUGCAGU
modifications: 2'-F on all C and U
B3: g33 2'-F (ssRNA)
RNA: GGGACGCUCACGUACGCUAAACUUUUGGCGAUCUCCGGCCGGAUACGGGAGAACGAGGUAUCAGUGCCUGGACGUGCAGU
modifications: 2'-F on all C and U
B4: g36 2'-F (ssRNA)
RNA: GGGACGCUCACGUACGCUAACUUGAUUGGUCGCAACCGGACAAGGACGGGUUGAUGCAGUUCAGUGCCUGGACGUGCAGU
modifications: 2'-F on all C and U
B5: g34 2'-F (ssRNA)
RNA: GGGACGCUCACGUACGCUAAUUUGGUGAAUUCCGACCAUUUUGCAAACGGGAUACGGGACUCAGUGCCUGGACGUGCAGU
modifications: 2'-F on all C and U
B6: g16 (ssRNA)
RNA: GGGACGCUCACGUACGCUAACCGCUACCGGGUGCAACGGGUAGACUGUAACCAGGUGAUAUCAGUGCCUGGACGUGCAGU
B7: g12 (ssRNA)
RNA: GGGACGCUCACGUACGCUAACGCGGCCAUCCGGCGUUUGGAACGGGAUGUACACCUGACAUCAGUGCCUGGACGUGCAGU
B8: g28 (ssRNA)
RNA: GGGACGCUCACGUACGCUAACCUGGGGGUUCCGCAGGAAUCGGGAACUAGAUUGGUGGUCUCAGUGCCUGGACGUGCAGU
B9: g17 (ssRNA)
RNA: GGGACGCUCACGUACGCUAAAGUGAUGGCCGGCUGGAGAAACGGGCCACUCGAUCCAGGUCAGUGCCUGGACGUGCAGU
B10: g30 (ssRNA)
RNA: GGGACGCUCACGUACGCUAAAAAUUGCCGGGAUCUGGUGUGGCGACCAUGCGGCGUGCAUUCAGUGCCUGGACGUGCAGU
B11: g26 (ssRNA)
RNA: GGGACGCUCACGUACGCUAAGCUCCACCAGGUGUAGCUAGCCUGUAGACAUCAGUAGCAUCAGUGCCUGGACGUGCAGU
B12: g10 (ssRNA)
RNA: GGGACGCUCACGUACGCUAAACACAGCUCUGAUGGUCGUGAUUAGGUUGACCACCUACCUUCAGUGCCUGGACGUGCAGU
B13: g32 (ssRNA)
RNA: GGGACGCUCACGUACGCUAAACAAGACCGGGAUGGGGGUUGGUCACACACAAAGACUGAAUCAGUGCCUGGACGUGCAGU
B14: g27 (ssRNA)
RNA: GGGACGCUCACGUACGCUAACCUAUGCAGACCGACAUCCGGGUAUACGGGAUGAUGCGACUCAGUGCCUGGACGUGCAGU
B15: g33 (ssRNA)
RNA: B3 RNA
B16: g15 (ssRNA)
RNA: GGGACGCUCACGUACGCUAAGACGCGGGCCACCGGCUAGCGACGGGUGGUAAAGGGCUUGUCAGUGCCUGGACGUGCAGU
B17: g31 (ssRNA)
RNA: GGGACGCUCACGUACGCUAAAGAGUCUAUGCCGUGAGUGAGGGUGGCGCCUCGACUGCCAUCAGUGCCUGGACGUGCAGU
B18: g24 (ssRNA)
RNA: GGGACGCUCACGUACGCUAAGAGUUGUCGCACAGCGACUCGAAAAUAAUCUGUCCGACACUCAGUGCCUGGACGUGCAGU
B19: g22 (ssRNA)
RNA: GGGACGCUCACGUACGCUAAGCGUGUUUCUUCAUUUCGACGCUGGCCAACGGAAAUGCAAUCAGUGCCUGGACGUGCAGU
B20: g21 (ssRNA)
RNA: GGGACGCUCACGUACGCUAACCUUGGUGUCAUCCGACCAAAUUAGAACGGGAUGAGGAAGUCAGUGCCUGGACGUGCAGU
B21: g34 (ssRNA)
RNA: B5 RNA
B22: g20 (ssRNA)
RNA: GGGACGCUCACGUACGCUAAACGUUGUGGCGAACUUCGGCCCGAACGGGAGUAACUGCAUCAGUGCCUGGACGUGCAGU
B23: g23 (ssRNA)
RNA: GGGACGCUCACGUACGCUAAAUGGGAGUGCGCCUCGGCUCUAACGGAGGUAUGCACGUCAUCAGUGCCUGGACGUGCAGU
B24: g14 (ssRNA)
RNA: GGGACGCUCACGUACGCUAAUCAUCGGGACAUCGGAUGGAACGGGUGUCAAGAAGCGUGUUCAGUGCCUGGACGUGCAGU
B25: g19 (ssRNA)
RNA: GGGACGCUCACGUACGCUAAGUAGCCGUGAUUGGGUUGGCUGCCCACAAUUAUCCAGGACUCAGUGCCUGGACGUGCAGU
B26: g18 (ssRNA)
RNA: GGGACGCUCACGUACGCUAAGGCACCCUAUAGGAUUCAGCCCCUAACCCGGUGUUGUGAAUCAGUGCCUGGACGUGCAGU
B27: g25 (ssRNA)
RNA: GGGACGCUCACGUACGCUAAUAGCAACAGUUCCCAGAGGUGAUCAGGCAGCCUUAAGACAUCAGUGCCUGGACGUGCAGU
B28: g11 (ssRNA)
RNA: GGGACGCUCACGUACGCUAAGUUUAGGUGGCAUCGACCUUCAUGAAACGGGUGCACAGGCUCAGUGCCUGGACGUGCAGU
B29: g13 (ssRNA)
RNA: GGGACGCUCACGUACGCUAAUCACUCGGACAGCCGGAGCGAAACGGGCUGUGUAAGACUGUCAGUGCCUGGACGUGCAGU
B30: g29 (ssRNA)
RNA: GGGACGCUCACGUACGCUAAACGAGCCGUGAUUGGGUUGGCAACCCUGCUUAUGUGAGGAUCAGUGCCUGGACGUGCAGU

Target: T1, rec-cMet (Recombinant Human HGF R/c-MET/Fc Chimera) (Homo sapiens, UniProt P08581;P08581 SEQ:1-283,SEQ:1-625)
Experiment: SPR; rec-cMet 60 nM
Conditions: tags: C-terminal HIEGRMD linker, human IgG Fc (100-330), 6xHis; R&D Systems; chain copies: 2 (inferred, Fc chimera)
Procedure: (§1) Using these truncated RNA aptamers, the binding ability thereof to the rec-cMet was examined. The binding ability was analyzed using BIACORE (registered trademark) X (GE Healthcare) in accordance with its instructions for use, with the concentration of the rec-cMet being set to 175 nmol/L. Also, the binding ability of each of the RNA aptamers g1 and g1-trA was examined in the same manner. As a comparative example, the 40N was used, and the binding ability thereof was examined in the same manner.
(§2) The binding ability of each of the RNA aptamers to the rec-cMet was examined in the same manner as in Example 5, except that the fluorinated RNA aptamers were used. The concentration of the rec-cMet was set to 60 nmol/L. With the time point at which the introduction of the rec-cMet to the chip was started being 0 seconds, introduction of a buffer was started 60 seconds later. As a comparative example, the same negative control as in Example 6 was used.

T1 sequence (P08581 25-307, change not shown, chain 1 of 2): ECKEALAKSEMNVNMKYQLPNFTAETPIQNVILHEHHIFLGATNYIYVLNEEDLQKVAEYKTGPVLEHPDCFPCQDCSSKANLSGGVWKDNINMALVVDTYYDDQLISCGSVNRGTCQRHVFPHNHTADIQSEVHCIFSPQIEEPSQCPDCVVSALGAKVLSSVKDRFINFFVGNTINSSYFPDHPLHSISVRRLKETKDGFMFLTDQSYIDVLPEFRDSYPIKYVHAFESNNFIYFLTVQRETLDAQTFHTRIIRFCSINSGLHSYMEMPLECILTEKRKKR
T1 sequence (P08581 308-932, change not shown, chain 2 of 2): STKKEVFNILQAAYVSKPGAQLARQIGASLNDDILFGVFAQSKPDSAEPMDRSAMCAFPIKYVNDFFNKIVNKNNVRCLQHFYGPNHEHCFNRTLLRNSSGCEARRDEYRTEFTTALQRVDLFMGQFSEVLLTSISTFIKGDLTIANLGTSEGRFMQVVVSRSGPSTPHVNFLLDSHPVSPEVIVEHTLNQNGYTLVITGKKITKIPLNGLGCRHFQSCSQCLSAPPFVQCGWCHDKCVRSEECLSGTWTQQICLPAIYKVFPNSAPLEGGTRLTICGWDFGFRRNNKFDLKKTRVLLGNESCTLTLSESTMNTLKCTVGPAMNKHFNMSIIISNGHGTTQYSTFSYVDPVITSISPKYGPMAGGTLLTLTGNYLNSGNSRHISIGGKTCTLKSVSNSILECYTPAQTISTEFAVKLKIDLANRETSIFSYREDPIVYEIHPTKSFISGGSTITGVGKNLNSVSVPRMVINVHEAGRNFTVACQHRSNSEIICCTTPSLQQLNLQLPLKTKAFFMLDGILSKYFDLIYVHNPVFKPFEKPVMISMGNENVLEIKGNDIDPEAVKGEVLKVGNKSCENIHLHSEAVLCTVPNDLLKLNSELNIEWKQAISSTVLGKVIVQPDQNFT

Row | Binder | binding result
1 | B1 | binds
2 | B2 | binds
3 | B3 | binds
4 | B4 | binds
5 | B5 | binds

Target: T1, rec-cMet (Recombinant Human HGF …)
Experiment: SPR; rec-cMet 100 nM
Conditions: tags: C-terminal HIEGRMD linker, human IgG Fc (100-330), 6xHis; R&D Systems; chain copies: 2 (inferred, Fc chimera)
Procedure: as §1
as §2, with “the above” for “the fluorinated”, “to 100” for “to 60”, “later.” for “later. As a comparative example, the same negative control as in Example 6 was used.”

Row | Binder | binding result
6 | B6 | binds
7 | B7 | binds
8 | B8 | binds
9 | B9 | binds
10 | B10 | binds
11 | B11 | binds
12 | B12 | binds
13 | B13 | binds
14 | B14 | binds
15 | B15 | binds
16 | B16 | binds
17 | B17 | binds
18 | B18 | binds
19 | B19 | binds
20 | B20 | binds
21 | B21 | binds
22 | B22 | binds
23 | B23 | binds
24 | B24 | binds
25 | B25 | binds
26 | B26 | binds
27 | B27 | binds
28 | B28 | binds
29 | B29 | binds
30 | B30 | binds
